{"source": "patent US10378034B2", "about": "“Use of a N-acetylneuraminate lyase derived from the bacterium Aliivibrio salmonicida in the production of neuraminic acid and derivatives thereof” (Universitetet i Tromsø-Norges Arktiske Universitet, priority 2014, dated 2019)", "molecules": {"B1": {"name": "AsNAL: N-acetylneuraminate lyase isolated from the psychrophilic bacterium Aliivibrio salmonicida LFI1238, recombinantly expressed in E. coli (protein, listed as Aliivibrio salmonicida)", "chain": "MKKLTGLIAAPHTPFDSSSNVNFEEIDKIAKHLINDGVKGIYVCGTTGEGIHCSVEERKAIAERWVSACNHKLDIIVHTGALSIVDTLELTRHADTLDILATSAIGPCFFKPGSVSDLVEYCATIAAAAPSKGFYYYHSGMSGVNLNMEEFLIQADKRIPNLSGLKFNSGDLYEYQRCLRACDGKFDVPFGVDEFLPGALAVGAKSAVGSTYNYAAPHFNSIIEAFNKGDHDAVFNKMTNVIELIRVLVEFGGVAAGKIAMELHDINAGDPRLPLMPLSAEQKLTVVEKMRAANFLK"}}, "key": {"[1]": {"assay": "TBA assay, condensation activity: pH and temperature profiles", "type": "biochemical", "experimental": "Both the condensation and cleavage activities of NAL were assessed using the modified thiobarbituric acid (TBA) assay developed by Aminoff (1961) and Warren (1959). The condensation activity was determined by incubating 50 μl of a reaction mixture containing 15 mM sodium pyruvate, 15 mM ManNAc, 124 mM HEPES pH 8.0 and different concentrations of enzyme depending on assay type at selected temperatures for the required amount of time. The reaction was terminated by adding 137 μl 2.5 mg/ml sodium periodate in 57 mM H2SO4, followed by incubation at 37° C. for 15 min with shaking at 1350 rpm. Sodium arsenite (50 μl, 25 mg/ml sodium arsenite in 0.5 M HCl) was added resulting in brown color. The tubes were shaken manually until the brown color disappeared. 2-thiobarbituric acid solution (100 μl, 71 mg/ml adjusted to pH 9.0) was subsequently added, and the tubes were incubated in boiling water for 7.5 min. […] The organic phase containing the red chromophore (200 μl) was used for measurement of absorbance at 549 nm in a spectrophotometer (SpectraMax M2e, Molecular Devices). […]\npH profiles were determined by assaying the enzyme in triplicate for both condensation and cleavage directions at pH values ranging from 5.5 to 11.0 with 0.5 pH unit intervals. […] Temperature profiles were determined for both directions by assaying the enzyme in triplicate from 4 to 80° C. in HEPES buffer pH 8.0. […]"}, "[2]": {"assay": "Differential scanning calorimetry (DSC)", "type": "physicochemical", "conditions": "500 mM NaCl, 50 mM HEPES pH 7.5", "experimental": "The melting temperature of AsNAL was studied by differential scanning calorimetry (DSC). The pure protein was dialyzed overnight at 4° C. against a buffer containing 50 mM HEPES, pH 7.5 and 500 mM NaCl in a Pierce Slide-A-Lyzer dialysis cassette (3.5 kDa cut-off). Dialyzed protein was concentrated to 1.9 mg/ml using a 10 kDa cutoff Amicon Ultra spin-column (Millipore), filtered through a 0.2 μm filter (Millipore) and degassed for 15 min. DSC experiments were carried out with a Nano-Differential Scanning Calorimeter III, (calorimetry Sciences Corporation) at a scan rate of 1° C./min in the range from 1 to 80° C. and with a constant pressure of 3 atm. The dialysis buffer was used as reference in the DSC runs. The melting temperature of the protein was calculated by subtracting the buffer-buffer baseline from the protein scan. Refolding experiments were carried out by a reverse cooling scan, allowing the unfolded protein to be kept at 4° C. overnight before a new forward scan was done. The NanoAnalyze™ software was used to calculate the melting temperature. The experimental transition curves were fitted on a two-state transition model."}, "[3]": {"assay": "TBA assay, cleavage activity: pH and temperature profiles", "type": "biochemical", "experimental": "(§1) The cleavage activity was determined by incubating 50 μl of a reaction mixture containing 5 mM Neu5Ac, 124 mM HEPES pH 8.0 and different concentrations of enzyme depending on assay type at selected temperatures for the required amount of time. Termination of the reactions and subsequent steps of the assay are as described above. The decrease in absorbance is correlated to the increase in cleavage activity.\npH profiles were determined by assaying the enzyme in triplicate for both condensation and cleavage directions at pH values ranging from 5.5 to 11.0 with 0.5 pH unit intervals. Sodium phosphate buffer was used from pH 5.5 to 7.5, HEPES buffer from pH 6.5 to 8.0, Tris-HCl buffer from pH 7.5 to 9.0 and Glycine buffer from pH 9.0 to 11.0. The reaction mixture was incubated at room temperature for 1 h before being subjected to the TBA assay. Temperature profiles were determined for both directions by assaying the enzyme in triplicate from 4 to 80° C. in HEPES buffer pH 8.0. The reaction mixture was incubated for 30 min at selected temperatures and the reaction was terminated by adding 2 μl of concentrated H2SO4 and then subjected to the TBA assay."}, "[4]": {"assay": "Comparative specific activity, cleavage reaction (TBA assay)", "type": "biochemical", "experimental": "as §1\nStandard reaction mixtures were incubated at room temperature for 1 h before being subjected to the TBA assay."}, "[5]": {"assay": "Thermofluor thermal denaturation", "type": "physicochemical", "experimental": "Long term stability of AsNAL at different pH was studied by incubating the enzyme at pH values from 6.0 to 11.0 at room temperature for a month. Buffers used were Sodium phosphate (pH 6.0-7.0), HEPES (pH 7.0-8.0), Tris-HCl (pH 8.0-9.0) and glycine (pH 9.0-11.0). The enzyme activity in the condensation direction was measured using the standard reaction mixture incubated at room temperature for 1 h, with subsequent TBA assay. The stability of AsNAL at different pH was also studied using the thermofluor method described by Ericsson et al. (2006) where increased or decreased stability is related to the increase or decrease in the melting temperature of the protein. For the thermofluor assay, the protein was dialyzed overnight at 4° C. against a buffer containing 10 mM HEPES pH 7.5, 150 mM NaCl and 2 mM β-ME in Pierce Slide-A-Lyzer dialysis cassettes with a 3.5 kDa cutoff. The dialyzed protein was mixed with 2 μl of 300× Sypro® Orange protein gel stain (Sigma) and 100 mM of different buffers ranging from pH 5.0 to pH 9.0. Thermal shifts were screened for by heating in an iCycler iQ Real Time PCR Detection System (Bio-Rad Laboratories) from 1 to 80° C. in increments of 1° C./min. […]"}, "[6]": {"assay": "Long term stability at different pH (condensation activity after one month)", "type": "physicochemical", "experimental": "Long term stability of AsNAL at different pH was studied by incubating the enzyme at pH values from 6.0 to 11.0 at room temperature for a month. Buffers used were Sodium phosphate (pH 6.0-7.0), HEPES (pH 7.0-8.0), Tris-HCl (pH 8.0-9.0) and glycine (pH 9.0-11.0). The enzyme activity in the condensation direction was measured using the standard reaction mixture incubated at room temperature for 1 h, with subsequent TBA assay. The stability of AsNAL at different pH was also studied using the thermofluor method described by Ericsson et al. (2006) where increased or decreased stability is related to the increase or decrease in the melting temperature of the protein. For the thermofluor assay, the protein was dialyzed overnight at 4° C. against a buffer containing 10 mM HEPES pH 7.5, 150 mM NaCl and 2 mM β-ME in Pierce Slide-A-Lyzer dialysis cassettes with a 3.5 kDa cutoff. The dialyzed protein was mixed with 2 μl of 300× Sypro® Orange protein gel stain (Sigma) and 100 mM of different buffers ranging from pH 5.0 to pH 9.0. Thermal shifts were screened for by heating in an iCycler iQ Real Time PCR Detection System (Bio-Rad Laboratories) from 1 to 80° C. in increments of 1° C./min. The buffers tested were: Sodium acetate (pH 5.0), Phosphate citrate (pH 5.0-5.5), Sodium citrate (pH 5.5), MES (pH 6.0-6.5), Na-cacodylate (pH 6.0-6.5), Sodium dipotassium phosphate (pH 6.5), BisTris (pH 7.0), HEPES (pH 7.0-8.0), Tris-HCl (pH 7.5-8.5), Imidazole (pH 7.5-8.0), Bicine (pH 8.5) and BisTris propane (pH 8.5-9.0)."}, "[7]": {"conditions": "at 10° C., relative to highest value"}}, "data": [{"molecule": "B1", "values": [{"measurement": "optimal temperature, condensation reaction", "setting": "[1]; HEPES buffer pH 8.0, 30 min", "result": 20, "unit": "°C"}, {"measurement": "condensation activity retained", "setting": "[1]; [7]", "result": 75, "unit": "%"}, {"measurement": "melting temperature (DSC)", "setting": "[2]", "result": 77.5, "unit": "°C"}, {"measurement": "ΔH (DSC)", "setting": "[2]", "result": 179.164, "unit": "kcal/mol"}, {"measurement": "ΔS (DSC)", "setting": "[2]", "result": "2.137 kJ/(mol·K)"}, {"measurement": "optimal temperature, cleavage reaction", "setting": "[3]; HEPES buffer pH 8.0, 30 min", "result": 65, "unit": "°C"}, {"measurement": "cleavage activity retained", "setting": "[3]; [7]", "result": 30, "unit": "%"}, {"measurement": "specific activity of the cleavage reaction, higher than EcNAL", "setting": "[4]; 4° C.", "result": 25, "unit": "%"}, {"measurement": "specific activity of the cleavage reaction, higher than EcNAL", "setting": "[4]; 23° C.", "result": 35, "unit": "%"}, {"measurement": "specific activity of the cleavage reaction, higher than EcNAL", "setting": "[4]; 37° C.", "result": 35, "unit": "%"}, {"measurement": "melting temperature (thermofluor)", "setting": "[5]; 500 mM NaCl", "result": 76.9, "unit": "°C"}, {"measurement": "melting temperature (thermofluor)", "setting": "[5]; milli-Q water", "result": "73.15±0.21", "unit": "°C"}, {"measurement": "decrease in activity (condensation) after one month", "setting": "[6]; Glycine pH 11.0, room temperature", "result": 3.3, "unit": "%"}, {"measurement": "decrease in activity (condensation) after one month", "setting": "[6]; HEPES pH 8.0, room temperature", "result": 14.5, "unit": "%"}, {"measurement": "decrease in activity (condensation) after one month", "setting": "[6]; Phosphate pH 7.0, room temperature", "result": 15, "unit": "%"}, {"measurement": "decrease in activity (condensation) after one month", "setting": "[6]; Tris-HCl pH 8.0, room temperature", "result": 14, "unit": "%"}, {"measurement": "decrease in activity (condensation) after one month", "setting": "[6]; Tris-HCl pH 8.5, room temperature", "result": 6.4, "unit": "%"}, {"measurement": "decrease in activity (condensation) after one month", "setting": "[6]; Tris-HCl pH 9.0, room temperature", "result": 4, "unit": "%"}, {"measurement": "activity retained after storage compared to initial activity", "setting": "[6]; all measured pH (6.0 to 11.0), one month, room temperature", "result": "More than 83%"}]}]}
